B1: Histone-lysine N-methyltransferase SMYD1 (Homo sapiens), Q8NB12 (parent)
chain: MTIGRMENVEVFTAEGKGRGLKATKEFWAADIIFAERAYSAVVFDSLVNFVCHTCFKRQEKLHRCGQCKFAHYCDRTCQKDAWLNHKNECSAIKRYGKVPNENIRLAARIMWRVEREGTGLTEGCLVSVDDLQNHVEHFGEEEQKDLRVDVDTFLQYWPPQSQQFSMQYISHIFGVINCNGFTLSDQRGLQAVGVGIFPNLGLVNHDCWPNCTVIFNNGNHEAVKSMFHTQMRIELRALGKISEGEELTVSYIDFLNVSEERKRQLKKQYYFDCTCEHCQKKLKDDLFLGVKDNPKPSQEVVKEMIQFSKDTLEKIDKARSEGLYHEVVKLCRECLEKQEPVFADTNIYMLRMLSIVSEVLSYLQAFEEASFYARRMVDGYMKLYHPNNAQLGMAVMRAGLTNWHAGNIEVGHGMICKAYAILLVTHGPSHPITKDLEAMRVQTEMELRMFRQNEFMYYKMREAALNNQPMQVMAEPSNEPSPALFHKKQ
partner: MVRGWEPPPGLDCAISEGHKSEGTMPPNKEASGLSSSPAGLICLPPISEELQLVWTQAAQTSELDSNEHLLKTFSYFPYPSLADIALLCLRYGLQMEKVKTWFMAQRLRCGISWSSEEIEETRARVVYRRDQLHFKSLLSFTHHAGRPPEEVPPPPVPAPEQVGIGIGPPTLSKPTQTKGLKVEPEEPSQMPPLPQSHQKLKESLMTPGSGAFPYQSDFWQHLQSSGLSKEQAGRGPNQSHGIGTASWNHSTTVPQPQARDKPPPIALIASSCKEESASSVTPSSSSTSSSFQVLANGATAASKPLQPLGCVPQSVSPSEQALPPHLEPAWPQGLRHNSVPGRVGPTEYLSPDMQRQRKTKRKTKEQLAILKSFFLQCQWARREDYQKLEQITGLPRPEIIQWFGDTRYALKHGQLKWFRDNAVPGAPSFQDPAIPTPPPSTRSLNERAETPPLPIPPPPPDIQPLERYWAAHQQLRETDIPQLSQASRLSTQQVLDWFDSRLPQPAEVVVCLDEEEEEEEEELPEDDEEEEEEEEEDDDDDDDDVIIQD
B2: Late cornified envelope protein 1B (Homo sapiens), Q5T7P3 (parent)
chain: MSCQQNQQQCQPPPKCIPKCPPKCLTPRCPPKCPPKCPPVSSCCSVSSGGCCGSSSGGSCGSSSGGCCSSGGGGCCLSHHRRRRSHCHRPQSSGCCSQPSGGSSCCGGGSGQHSGGCC
partner: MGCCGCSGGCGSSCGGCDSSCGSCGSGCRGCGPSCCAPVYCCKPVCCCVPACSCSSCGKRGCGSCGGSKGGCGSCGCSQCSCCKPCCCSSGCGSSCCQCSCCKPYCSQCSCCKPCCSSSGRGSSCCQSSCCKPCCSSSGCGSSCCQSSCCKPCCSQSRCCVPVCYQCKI
B3: E3 ubiquitin-protein ligase LNX (Homo sapiens), Q8TBB1 (parent)
chain: MNQPESANDPEPLCAVCGQAHSLEENHFYSYPEEVDDDLICHICLQALLDPLDTPCGHTYCTLCLTNFLVEKDFCPMDRKPLVLQHCKKSSILVNKLLNKLLVTCPFREHCTQVLQRCDLEHHFQTSCKGASHYGLTKDRKRRSQDGCPDGCASLTATAPSPEVSAAATISLMTDEPGLDNPAYVSSAEDGQPAISPVDSGRSNRTRARPFERSTIRSRSFKKINRALSVLRRTKSGSAVANHADQGRENSENTTAPEVFPRLYHLIPDGEITSIKINRVDPSESLSIRLVGGSETPLVHIIIQHIYRDGVIARDGRLLPGDIILKVNGMDISNVPHNYAVRLLRQPCQVLWLTVMREQKFRSRNNGQAPDAYRPRDDSFHVILNKSSPEEQLGIKLVRKVDEPGVFIFNVLDGGVAYRHGQLEENDRVLAINGHDLRYGSPESAAHLIQASERRVHLVVSRQVRQRSPDIFQEAGWNSNGSWSPGPGERSNTPKPLHPTITCHEKVVNIQKDPGESLGMTVAGGASHREWDLPIYVISVEPGGVISRDGRIKTGDILLNVDGVELTEVSRSEAVALLKRTSSSIVLKALEVKEYEPQEDCSSPAALDSNHNMAPPSDWSPSWVMWLELPRCLYNCKDIVLRRNTAGSLGFCIVGGYEEYNGNKPFFIKSIVEGTPAYNDGRIRCGDILLAVNGRSTSGMIHACLARLLKELKGRITLTIVSWPGTFL

Variants of: B1
Settings: with homez_human HOMEZ

Row | Variant | effect of a mutation on the interaction
1 | Q443R | with no effect

Variants of: B2
Settings: with kra59_human KRTAP5-9, P26371

Row | Variant | effect of a mutation on the interaction
2 | C16Y | disrupting interaction strength

Variants of: B3
Settings: with srsf1_human SRSF1, Q07955
srsf1_human SRSF1, Q07955, sequence (Q07955 whole entry): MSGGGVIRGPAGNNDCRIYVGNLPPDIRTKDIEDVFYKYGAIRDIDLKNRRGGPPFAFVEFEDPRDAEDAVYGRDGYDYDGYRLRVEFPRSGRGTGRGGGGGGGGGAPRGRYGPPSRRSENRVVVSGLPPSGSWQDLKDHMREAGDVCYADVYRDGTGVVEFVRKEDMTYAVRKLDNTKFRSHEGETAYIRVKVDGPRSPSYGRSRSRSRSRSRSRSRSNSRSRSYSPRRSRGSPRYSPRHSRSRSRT

Row | Variant | effect of a mutation on the interaction
3 | E295K | disrupting interaction strength

Variants of: B3
Settings: with pmgt1_human POMGNT1, Q8WZA1
pmgt1_human POMGNT1, Q8WZA1, sequence (Q8WZA1 whole entry): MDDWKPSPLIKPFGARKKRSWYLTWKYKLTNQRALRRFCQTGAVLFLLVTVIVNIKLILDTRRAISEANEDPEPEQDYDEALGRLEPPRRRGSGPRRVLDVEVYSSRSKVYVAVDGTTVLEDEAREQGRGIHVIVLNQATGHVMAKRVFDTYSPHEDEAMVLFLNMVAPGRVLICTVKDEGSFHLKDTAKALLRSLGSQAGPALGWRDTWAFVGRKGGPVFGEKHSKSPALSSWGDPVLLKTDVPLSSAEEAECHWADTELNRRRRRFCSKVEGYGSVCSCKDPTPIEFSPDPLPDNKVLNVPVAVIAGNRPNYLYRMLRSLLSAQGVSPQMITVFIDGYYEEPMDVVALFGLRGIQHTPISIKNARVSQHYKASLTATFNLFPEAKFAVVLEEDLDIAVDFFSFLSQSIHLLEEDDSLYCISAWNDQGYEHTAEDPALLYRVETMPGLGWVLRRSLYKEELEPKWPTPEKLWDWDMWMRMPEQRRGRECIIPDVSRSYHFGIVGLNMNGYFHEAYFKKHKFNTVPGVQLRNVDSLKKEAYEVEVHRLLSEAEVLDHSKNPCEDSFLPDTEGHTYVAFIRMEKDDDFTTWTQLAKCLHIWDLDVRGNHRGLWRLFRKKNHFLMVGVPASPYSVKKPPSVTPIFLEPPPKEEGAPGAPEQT

Row | Variant | effect of a mutation on the interaction
4 | E295K | disrupting interaction strength

Variants of: B3
Settings: with nagk_human NAGK

Row | Variant | effect of a mutation on the interaction
5 | E295K | disrupting interaction strength

Variants of: B3
Settings: with cep72_human CEP72, Q9P209
cep72_human CEP72, Q9P209, sequence (Q9P209 whole entry): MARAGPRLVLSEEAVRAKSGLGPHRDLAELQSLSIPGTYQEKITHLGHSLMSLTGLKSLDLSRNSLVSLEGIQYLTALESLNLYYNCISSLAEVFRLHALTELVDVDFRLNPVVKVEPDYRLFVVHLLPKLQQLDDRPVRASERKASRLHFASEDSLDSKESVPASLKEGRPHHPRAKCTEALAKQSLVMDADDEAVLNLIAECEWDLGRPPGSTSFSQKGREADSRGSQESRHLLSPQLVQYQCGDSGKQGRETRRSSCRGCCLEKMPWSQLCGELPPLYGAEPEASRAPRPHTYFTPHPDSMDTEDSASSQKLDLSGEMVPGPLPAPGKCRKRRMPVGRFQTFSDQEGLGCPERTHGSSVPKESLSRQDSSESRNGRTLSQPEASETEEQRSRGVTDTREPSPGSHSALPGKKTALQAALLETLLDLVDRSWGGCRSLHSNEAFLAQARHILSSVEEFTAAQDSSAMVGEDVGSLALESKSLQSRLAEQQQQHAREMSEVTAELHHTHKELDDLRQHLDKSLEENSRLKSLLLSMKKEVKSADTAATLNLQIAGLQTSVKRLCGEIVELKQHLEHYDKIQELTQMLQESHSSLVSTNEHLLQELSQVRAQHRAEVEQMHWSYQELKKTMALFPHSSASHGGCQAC

Row | Variant | effect of a mutation on the interaction
6 | E295K | disrupting interaction strength

Variants of: B3
Settings: with mk09_human MAPK9, P45984

Row | Variant | effect of a mutation on the interaction
7 | E295K | with no effect

Variants of: B3
Settings: with grb2_human GRB2, P62993
grb2_human GRB2, P62993, sequence (P62993 whole entry, looked up): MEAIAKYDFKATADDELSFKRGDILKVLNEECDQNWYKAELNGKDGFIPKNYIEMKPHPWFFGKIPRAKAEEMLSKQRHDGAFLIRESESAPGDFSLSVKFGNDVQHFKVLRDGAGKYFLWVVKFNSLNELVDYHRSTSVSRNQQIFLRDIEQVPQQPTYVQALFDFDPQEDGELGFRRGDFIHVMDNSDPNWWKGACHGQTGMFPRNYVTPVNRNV

Row | Variant | effect of a mutation on the interaction
8 | E295K | disrupting interaction strength

Variants of: B3
Settings: with ldoc1_human LDOC1, O95751
ldoc1_human LDOC1, O95751, sequence (O95751 whole entry): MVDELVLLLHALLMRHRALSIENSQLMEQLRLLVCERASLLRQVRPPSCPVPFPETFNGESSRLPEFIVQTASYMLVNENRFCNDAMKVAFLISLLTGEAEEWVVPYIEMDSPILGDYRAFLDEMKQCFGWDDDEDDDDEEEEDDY

Row | Variant | effect of a mutation on the interaction
9 | E295K | disrupting interaction strength

Variants of: B3
Settings: with kcd17_human KCTD17, Q8N5Z5
kcd17_human KCTD17, Q8N5Z5, sequence (Q8N5Z5 whole entry): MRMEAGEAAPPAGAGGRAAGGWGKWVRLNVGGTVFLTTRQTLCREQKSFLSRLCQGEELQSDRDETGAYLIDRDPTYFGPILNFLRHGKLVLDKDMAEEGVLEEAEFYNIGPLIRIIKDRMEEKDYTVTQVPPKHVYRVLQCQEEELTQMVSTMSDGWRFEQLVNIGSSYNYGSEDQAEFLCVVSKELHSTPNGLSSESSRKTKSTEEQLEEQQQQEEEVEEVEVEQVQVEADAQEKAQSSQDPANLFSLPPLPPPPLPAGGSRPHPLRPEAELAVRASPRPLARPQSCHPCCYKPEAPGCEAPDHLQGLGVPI

Row | Variant | effect of a mutation on the interaction
10 | E295K | disrupting interaction strength

Variants of: B3
Settings: with rpia_human RPIA

Row | Variant | effect of a mutation on the interaction
11 | E295K | disrupting interaction strength

Variants of: B3
Settings: with tera_human VCP

Row | Variant | effect of a mutation on the interaction
12 | E295K | disrupting interaction strength

Variants of: B3
Settings: with KRT15, P19012
KRT15, P19012, sequence (P19012 whole entry): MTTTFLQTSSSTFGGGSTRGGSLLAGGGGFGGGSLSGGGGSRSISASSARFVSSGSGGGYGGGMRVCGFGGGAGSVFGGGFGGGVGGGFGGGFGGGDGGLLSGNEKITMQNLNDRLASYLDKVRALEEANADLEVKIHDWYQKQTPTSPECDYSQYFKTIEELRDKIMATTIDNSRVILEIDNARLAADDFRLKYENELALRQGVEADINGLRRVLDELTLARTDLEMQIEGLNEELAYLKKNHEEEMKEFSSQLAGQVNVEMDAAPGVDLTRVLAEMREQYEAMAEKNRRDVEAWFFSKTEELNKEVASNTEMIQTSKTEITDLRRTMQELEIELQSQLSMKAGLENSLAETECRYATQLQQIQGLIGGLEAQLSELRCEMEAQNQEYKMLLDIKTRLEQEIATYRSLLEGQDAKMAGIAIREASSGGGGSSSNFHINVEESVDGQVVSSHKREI

Row | Variant | effect of a mutation on the interaction
13 | E295K | disrupting interaction strength

Variants of: B3
Settings: with rop1a_human ROPN1, Q9HAT0
rop1a_human ROPN1, Q9HAT0, sequence (Q9HAT0 whole entry): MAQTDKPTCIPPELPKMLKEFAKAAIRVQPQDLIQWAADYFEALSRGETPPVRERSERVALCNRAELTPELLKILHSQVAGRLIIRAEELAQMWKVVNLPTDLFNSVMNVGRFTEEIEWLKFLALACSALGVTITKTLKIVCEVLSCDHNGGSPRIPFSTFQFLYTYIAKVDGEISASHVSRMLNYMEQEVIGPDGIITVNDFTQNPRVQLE

Row | Variant | effect of a mutation on the interaction
14 | E295K | disrupting interaction strength

Variants of: B3
Settings: with nt2na_human NOTCH2NLA

Row | Variant | effect of a mutation on the interaction
15 | E295K | disrupting interaction strength

Variants of: B3
Settings: with mt21a_human METTL21A

Row | Variant | effect of a mutation on the interaction
16 | E295K | disrupting interaction strength

Variants of: B3
Settings: with zbt8a_human ZBTB8A

Row | Variant | effect of a mutation on the interaction
17 | E295K | disrupting interaction strength

Variants of: B3
Settings: with dnpep_human DNPEP

Row | Variant | effect of a mutation on the interaction
18 | E295K | disrupting interaction strength

Variants of: B3
Settings: with clk2_human CLK2, P49760
clk2_human CLK2, P49760, sequence (P49760 whole entry, looked up): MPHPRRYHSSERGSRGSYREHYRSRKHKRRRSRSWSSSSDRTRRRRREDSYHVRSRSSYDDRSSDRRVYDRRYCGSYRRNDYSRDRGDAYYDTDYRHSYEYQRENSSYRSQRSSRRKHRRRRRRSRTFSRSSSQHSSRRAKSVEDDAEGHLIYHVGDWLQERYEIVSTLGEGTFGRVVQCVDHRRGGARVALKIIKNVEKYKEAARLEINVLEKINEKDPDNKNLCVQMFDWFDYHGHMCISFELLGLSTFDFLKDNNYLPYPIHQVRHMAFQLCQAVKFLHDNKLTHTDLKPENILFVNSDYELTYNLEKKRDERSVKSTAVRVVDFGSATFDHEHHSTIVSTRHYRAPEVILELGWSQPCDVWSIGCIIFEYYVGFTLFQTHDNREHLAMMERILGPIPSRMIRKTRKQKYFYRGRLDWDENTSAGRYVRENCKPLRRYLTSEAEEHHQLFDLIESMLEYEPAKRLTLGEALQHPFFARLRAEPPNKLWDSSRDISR

Row | Variant | effect of a mutation on the interaction
19 | E295K | disrupting interaction strength

Variants of: B3
Settings: with sat1_human SAT1, P21673
sat1_human SAT1, P21673, sequence (P21673 whole entry): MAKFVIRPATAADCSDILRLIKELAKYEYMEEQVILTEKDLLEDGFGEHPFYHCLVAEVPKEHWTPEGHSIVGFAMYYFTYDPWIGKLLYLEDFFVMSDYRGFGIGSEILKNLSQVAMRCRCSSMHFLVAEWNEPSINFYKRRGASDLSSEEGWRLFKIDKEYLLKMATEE

Row | Variant | effect of a mutation on the interaction
20 | E295K | disrupting interaction strength

Variants of: B3
Settings: with neca2_human NECAB2, Q7Z6G3
neca2_human NECAB2, Q7Z6G3, sequence (Q7Z6G3 whole entry): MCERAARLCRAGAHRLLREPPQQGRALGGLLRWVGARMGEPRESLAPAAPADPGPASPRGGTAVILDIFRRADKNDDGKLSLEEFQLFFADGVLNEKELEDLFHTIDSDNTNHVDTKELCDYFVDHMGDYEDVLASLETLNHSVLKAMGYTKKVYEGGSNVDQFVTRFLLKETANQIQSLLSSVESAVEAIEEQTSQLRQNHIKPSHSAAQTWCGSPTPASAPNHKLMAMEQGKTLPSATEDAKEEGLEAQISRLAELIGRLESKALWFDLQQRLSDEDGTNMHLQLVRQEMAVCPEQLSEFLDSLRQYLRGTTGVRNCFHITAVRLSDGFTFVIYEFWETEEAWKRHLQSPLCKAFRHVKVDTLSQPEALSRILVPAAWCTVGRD

Row | Variant | effect of a mutation on the interaction
21 | E295K | disrupting interaction strength

Variants of: B3
Settings: with tri23_human TRIM23, P36406
tri23_human TRIM23, P36406, sequence (P36406 whole entry): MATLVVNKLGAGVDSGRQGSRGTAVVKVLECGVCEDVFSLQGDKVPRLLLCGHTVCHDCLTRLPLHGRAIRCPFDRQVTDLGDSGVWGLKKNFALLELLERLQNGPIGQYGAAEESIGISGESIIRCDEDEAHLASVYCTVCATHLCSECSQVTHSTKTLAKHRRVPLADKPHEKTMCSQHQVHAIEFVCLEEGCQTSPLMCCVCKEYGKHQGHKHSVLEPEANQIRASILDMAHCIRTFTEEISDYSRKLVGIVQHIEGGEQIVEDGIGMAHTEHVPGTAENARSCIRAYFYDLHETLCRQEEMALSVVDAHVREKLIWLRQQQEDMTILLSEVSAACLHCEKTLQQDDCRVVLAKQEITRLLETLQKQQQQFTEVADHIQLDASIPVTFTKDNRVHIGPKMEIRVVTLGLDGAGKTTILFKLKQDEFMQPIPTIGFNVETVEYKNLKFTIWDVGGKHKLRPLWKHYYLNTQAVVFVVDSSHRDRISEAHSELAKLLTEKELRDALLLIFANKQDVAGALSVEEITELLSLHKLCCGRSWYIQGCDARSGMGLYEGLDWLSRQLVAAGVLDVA

Row | Variant | effect of a mutation on the interaction
22 | E295K | disrupting interaction strength

Variants of: B3
Settings: with mr1l1_human MRFAP1L1, Q96HT8

Row | Variant | effect of a mutation on the interaction
23 | E295K | disrupting interaction strength

Variants of: B3
Settings: with ndk7_human NME7, Q9Y5B8
ndk7_human NME7, Q9Y5B8, sequence (Q9Y5B8 whole entry): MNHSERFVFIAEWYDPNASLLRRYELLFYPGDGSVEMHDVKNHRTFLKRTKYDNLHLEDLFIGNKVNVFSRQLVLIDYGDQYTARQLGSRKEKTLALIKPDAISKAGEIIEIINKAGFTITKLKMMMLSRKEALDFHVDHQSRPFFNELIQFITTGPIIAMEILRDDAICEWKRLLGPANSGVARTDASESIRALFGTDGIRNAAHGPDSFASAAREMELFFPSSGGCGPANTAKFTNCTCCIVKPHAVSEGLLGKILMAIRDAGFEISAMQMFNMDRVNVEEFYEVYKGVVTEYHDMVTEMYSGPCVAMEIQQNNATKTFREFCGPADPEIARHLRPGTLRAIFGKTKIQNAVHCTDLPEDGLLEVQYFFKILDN

Row | Variant | effect of a mutation on the interaction
24 | E295K | disrupting interaction strength

Source: IntAct's records for PubMed 29892012
